Literature values as cited in article PMC7990104.
Where two headings read alike, the source gives them in different places.

Assays:
[1] = biological target: PYL3 (Arabidopsis thaliana) (UniProt Q9SSM7)
[2] = biological target: PYL3 (Arabidopsis thaliana) (UniProt Q9SSM7); remark: listed apart in the source

- Kd [1]: 7.76 µM
- Kd [2]: 52 µM
Substance: PYL3 (from UniProt Q9SSM7)
